# Measurements reported in doi:10.1101/538884 (bioRxiv, 2019).
# Biological target: the molecule itself
# Test: SEC
protein,measurement,value
"HEV^440-691 (hepatitis E virus ORF1 residues 440-691) (domain or fragment, Hepatitis E virus (HEV), UniProt P33424 440-691, looked up) AGFHLDPRVLVFDESAPCHCRTAIRKAVSKFCCFMKWLGQECTCFLQPAEGVVGDQGHDNEAYEGSDVDPAESAISDISGSYVVPGTALQPLYQALDLPAEIVARAGRLTATVKVSQVDGRIDCETLLGNKTFRTSFVDGAVLETNGPERHNLSFDASQSTMAAGPFSLTYAASAAGLEVRYVAAGLDHRAVFAPGVSPRSAPGEVTAFCSALYRFNREAQRLSLTGNFWFHPEGLLGPFAPFSPGHVWESA",binding result,binds
